Test results: publication PMC3168705 (The FEBS journal, 2011)

Target: McTnI_(29–211), mouse cardiac TnI with the NH2-terminal extension removed (mouse, UniProt P48787 29-211)
Assay: ELISA

Chain of McTnI_(29–211), mouse cardiac TnI with the NH2-terminal extension removed (P48787 29-211): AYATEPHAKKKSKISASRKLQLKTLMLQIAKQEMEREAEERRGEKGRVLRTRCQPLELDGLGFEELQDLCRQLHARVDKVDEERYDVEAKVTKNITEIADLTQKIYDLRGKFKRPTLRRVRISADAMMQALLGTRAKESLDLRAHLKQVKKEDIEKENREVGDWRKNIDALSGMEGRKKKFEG

B1: chicken fast TnC (natural protein)
chain: not shown
- binding result: binds
